This note sets out measurements from article PMC3690534 (Molecular Cell, 2013).

Square brackets hold non-standard residues; d marks the D form. pS = N[C@@H](COP(=O)(O)O)C(=O)O

Test [1] deals with T1, Saccharomyces cerevisiae Cdh1 WD40 domain (residues 241-550) (S. cerevisiae, UniProt P53197 241-550).
T1 sequence (looked up): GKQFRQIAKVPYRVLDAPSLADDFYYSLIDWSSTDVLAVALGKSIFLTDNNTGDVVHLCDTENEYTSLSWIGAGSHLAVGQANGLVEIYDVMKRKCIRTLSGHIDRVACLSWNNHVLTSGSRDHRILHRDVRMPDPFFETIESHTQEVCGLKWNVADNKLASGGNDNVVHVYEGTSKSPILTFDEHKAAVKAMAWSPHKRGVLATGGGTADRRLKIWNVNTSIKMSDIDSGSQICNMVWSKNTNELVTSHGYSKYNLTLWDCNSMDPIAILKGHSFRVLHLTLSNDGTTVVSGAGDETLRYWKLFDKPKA
The test is described as follows: crystal structure.

Test [2] addresses T1, Saccharomyces cerevisiae Cdh1 WD40 …. Nature of the test: SAXS.
Test [3] has the same target. The test is described as follows: AUC.
Test [4] shares this target. The test is described as follows: SEC-MALS. A general note: SEC sorts molecules by how far they enter the pores of the column.

B1: Acm1 central inhibitory region (residues 59-128) (domain or fragment, S. cerevisiae, UniProt Q08981 59-128, looked up)
chain: AQFMLYEETAEERNIAVHRHNEIYNNNNSVSNENNPSQVKENL[pS]PAKICPYERAFLREGGRIALKDLSVD
On to B1, for which the binding result in test [1] is recorded as “binds”.

B2: Acm1^CIR-mNEN (Acm1^CIR-N90A/E91A/N92A) (domain or fragment, S. cerevisiae, UniProt Q08981 59-128, looked up)
chain: AQFMLYEETAEERNIAVHRHNEIYNNNNSVSAAANPSQVKENLSPAKICPYERAFLREGGRIALKDLSVD
As for B2, the binding result in test [2] is on record as “binds”.

B3: Acm1^ΔN (Acm1 residues 59-209), wild type (domain or fragment, S. cerevisiae, UniProt Q08981 59-209, looked up)
chain: AQFMLYEETAEERNIAVHRHNEIYNNNNSVSNENNPSQVKENLSPAKICPYERAFLREGGRIALKDLSVDEFKGYIQDPLTDETIPLTLPLGDKKISLPSFITPPRNSKISIFFTSKHQGQNPETKISRSTDDVSEKKVVRKLSFHVYEDE
Regarding B3, the binding result in test [3] is on record as “binds”.

B4: Acm1^ΔN-T161A (Acm1 residues 59-209, T161A) (domain or fragment, S. cerevisiae, UniProt Q08981 59-209, looked up)
chain: AQFMLYEETAEERNIAVHRHNEIYNNNNSVSNENNPSQVKENLSPAKICPYERAFLREGGRIALKDLSVDEFKGYIQDPLTDETIPLTLPLGDKKISLPSFIAPPRNSKISIFFTSKHQGQNPETKISRSTDDVSEKKVVRKLSFHVYEDE
Take B4: the binding result in test [4] was “binds”.
